Measurements from PMC9352680, “A comprehensive thermodynamic model for RNA binding by the Saccharomyces cerevisiae Pumilio protein PUF4”.

Target: T1, PUF4 RNA-binding domain (Saccharomyces cerevisiae, UniProt P25339 537-888)
T1 sequence: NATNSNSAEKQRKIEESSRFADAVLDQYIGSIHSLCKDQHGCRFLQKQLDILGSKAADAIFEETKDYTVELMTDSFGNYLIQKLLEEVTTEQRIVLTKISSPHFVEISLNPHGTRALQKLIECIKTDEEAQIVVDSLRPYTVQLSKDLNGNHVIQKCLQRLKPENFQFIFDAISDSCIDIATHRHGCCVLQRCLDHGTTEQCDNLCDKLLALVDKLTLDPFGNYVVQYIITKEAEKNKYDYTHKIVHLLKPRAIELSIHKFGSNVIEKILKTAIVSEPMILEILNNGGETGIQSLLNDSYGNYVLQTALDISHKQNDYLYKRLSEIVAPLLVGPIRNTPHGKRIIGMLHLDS
Experiment: Mg; RNA-MaP; 20 mM Na-HEPES pH 7.4, 30 mM KOAc, 0.75 mM MgCl2, 0.1% Tween-20, 5% glycerol, 0.1 mg/mL BSA, 2 mM DTT; 25 C; 0.0125-409.6 nM protein
Details: tags: N-His6-TEV cleaved; C-SNAP kept, Cy3B-labelled; label: tethered on chip by stalled RNA polymerase

Binder | Kd [nM]
UCUCUUAAUAUAUUAUUACCUCUCUU (ssRNA) [Id_ii_S1_P5E.3_K5.2_C5.2_[C-2A]_[T-1A]_H5.2_A5.1_F5.1_T5.2_[T11C]_[A12C]] | 668
UCUCUUACUAUAUUAUUAAAUCUCUU (ssRNA) [Id_ii_S1_P5E.3_K5.2_C5.2_[C-2A]_[T-1C]_H5.2_A5.1_F5.1_T5.2_[T11A]] | 626
UCUCUUACUAUAUUAUUAAUUCUCUU (ssRNA) [Id_ii_S1_P5E.3_K5.2_C5.2_[C-2A]_[T-1C]_H5.2_A5.1_F5.1_T5.2_[T11A]_[A12T]] | 453
UCUCUUUAUAUAUUAUUAAAUCUCUU (ssRNA) [Id_ii_S1_P5E.3_K5.2_C5.2_[C-2T]_[T-1A]_H5.2_A5.1_F5.1_T5.2_[T11A]] | 25.4
UCUCUUUAUAUAUUAUUACUUCUCUU (ssRNA) [Id_ii_S1_P5E.3_K5.2_C5.2_[C-2T]_[T-1A]_H5.2_A5.1_F5.1_T5.2_[T11C]_[A12T]] | 13.3
UCUCUUUUUAUAUUAUUACAUCUCUU (ssRNA) [Id_ii_S1_P5E.3_K5.2_C5.2_[C-2T]_H5.2_A5.1_F5.1_T5.2_[T11C]] | 497
UCUCUUUGUAUUCUAUCUCUU (ssRNA) [Ib_S1_P4E.1_K4.1_C4.1_H4.1_A4.1_[A6T]_[T7C]_F4.1_T4.1] | 2.85
UCUCUUCCUAUAUUAUUAAGUCUCUU (ssRNA) [Id_ii_S1_P5E.3_K5.2_C5.2_[T-1C]_H5.2_A5.1_F5.1_T5.2_[T11A]_[A12G]] | 971
UCUCUUUUUAUAUUAUUACGUCUCUU (ssRNA) [Id_ii_S1_P5E.3_K5.2_C5.2_[C-2T]_H5.2_A5.1_F5.1_T5.2_[T11C]_[A12G]] | 434
UCUCUUUAUAUAUUAUUAGCUCUCUU (ssRNA) [Id_ii_S1_P5E.3_K5.2_C5.2_[C-2T]_[T-1A]_H5.2_A5.1_F5.1_T5.2_[T11G]_[A12C]] | 13.7
UCUCUUCGUAUAUUAUUAACUCUCUU (ssRNA) [Id_ii_S1_P5E.3_K5.2_C5.2_[T-1G]_H5.2_A5.1_F5.1_T5.2_[T11A]_[A12C]] | 27.7
UCUCUUAUUAUAUUAUUAUCUCUCUU (ssRNA) [Id_ii_S1_P5E.3_K5.2_C5.2_[C-2A]_H5.2_A5.1_F5.1_T5.2_[A12C]] | 63.5
UCUCUUAAUAUAUUAUUACUUCUCUU (ssRNA) [Id_ii_S1_P5E.3_K5.2_C5.2_[C-2A]_[T-1A]_H5.2_A5.1_F5.1_T5.2_[T11C]_[A12T]] | 552
UCUCUUUUUAUAUUAUUAACUCUCUU (ssRNA) [Id_ii_S1_P5E.3_K5.2_C5.2_[C-2T]_H5.2_A5.1_F5.1_T5.2_[T11A]_[A12C]] | 524
UCUCUUCAUAUAUUAUUAGGUCUCUU (ssRNA) [Id_ii_S1_P5E.3_K5.2_C5.2_[T-1A]_H5.2_A5.1_F5.1_T5.2_[T11G]_[A12G]] | 488
UCUCUUAUUAUAUUAUUACCUCUCUU (ssRNA) [Id_ii_S1_P5E.3_K5.2_C5.2_[C-2A]_H5.2_A5.1_F5.1_T5.2_[T11C]_[A12C]] | 203
UCUCUUUGUAUUGUAUCUCUU (ssRNA) [Ib_S1_P4E.1_K4.1_C4.1_H4.1_A4.1_[A6T]_[T7G]_F4.1_T4.1] | 7.79
UCUCUUAUUAUAUUAUUAACUCUCUU (ssRNA) [Id_ii_S1_P5E.3_K5.2_C5.2_[C-2A]_H5.2_A5.1_F5.1_T5.2_[T11A]_[A12C]] | 159
UCUCUUCCUAUAUUAUUACAUCUCUU (ssRNA) [Id_ii_S1_P5E.3_K5.2_C5.2_[T-1C]_H5.2_A5.1_F5.1_T5.2_[T11C]] | 592
UCUCUUAUUAUAUUAUUAUUUCUCUU (ssRNA) [Id_ii_S1_P5E.3_K5.2_C5.2_[C-2A]_H5.2_A5.1_F5.1_T5.2_[A12T]] | 160
UCUCUUCCUAUAUUAUUAUUUCUCUU (ssRNA) [Id_ii_S1_P5E.3_K5.2_C5.2_[T-1C]_H5.2_A5.1_F5.1_T5.2_[A12T]] | 517

Binder | Kd [nM]
UCUCUUUAUAUAUUAUUAAUUCUCUU (ssRNA) [Id_ii_S1_P5E.3_K5.2_C5.2_[C-2T]_[T-1A]_H5.2_A5.1_F5.1_T5.2_[T11A]_[A12T]] | 21
UCUCUUACUAUAUUAUUACCUCUCUU (ssRNA) [Id_ii_S1_P5E.3_K5.2_C5.2_[C-2A]_[T-1C]_H5.2_A5.1_F5.1_T5.2_[T11C]_[A12C]] | 520
UCUCUUUAUAUAUUAUUACGUCUCUU (ssRNA) [Id_ii_S1_P5E.3_K5.2_C5.2_[C-2T]_[T-1A]_H5.2_A5.1_F5.1_T5.2_[T11C]_[A12G]] | 18.1
UCUCUUAUUAUAUUAUUACUUCUCUU (ssRNA) [Id_ii_S1_P5E.3_K5.2_C5.2_[C-2A]_H5.2_A5.1_F5.1_T5.2_[T11C]_[A12T]] | 175
UCUCUUUUUAUAUUAUUAGCUCUCUU (ssRNA) [Id_ii_S1_P5E.3_K5.2_C5.2_[C-2T]_H5.2_A5.1_F5.1_T5.2_[T11G]_[A12C]] | 160
UCUCUUCCUAUAUUAUUAACUCUCUU (ssRNA) [Id_ii_S1_P5E.3_K5.2_C5.2_[T-1C]_H5.2_A5.1_F5.1_T5.2_[T11A]_[A12C]] | 620
UCUCUUUAUAUAUUAUUAACUCUCUU (ssRNA) [Id_ii_S1_P5E.3_K5.2_C5.2_[C-2T]_[T-1A]_H5.2_A5.1_F5.1_T5.2_[T11A]_[A12C]] | 15.9
UCUCUUUGUAUUACCAUCUCUU (ssRNA) [Ib_S1_P5E.1_K5.1_C5.1_H5.1_A5.1_F5.1_[T8C]_[T9C]_T5.1] | 287
UCUCUUAAUAUAUUAUUACAUCUCUU (ssRNA) [Id_ii_S1_P5E.3_K5.2_C5.2_[C-2A]_[T-1A]_H5.2_A5.1_F5.1_T5.2_[T11C]] | 601
UCUCUUUCUAUAUUAUUAUCUCUCUU (ssRNA) [Id_ii_S1_P5E.3_K5.2_C5.2_[C-2T]_[T-1C]_H5.2_A5.1_F5.1_T5.2_[A12C]] | 455
UCUCUUUGUAUUAUGAUCUCUU (ssRNA) [Ia_S1_P5E.1_K5.1_C5.1_H5.1_A5.1_F5.1_[T9G]_T5.1] | 15.3
UCUCUUACUAUAUUAUUACUUCUCUU (ssRNA) [Id_ii_S1_P5E.3_K5.2_C5.2_[C-2A]_[T-1C]_H5.2_A5.1_F5.1_T5.2_[T11C]_[A12T]] | 486
UCUCUUCGUAUAUUAUUAUUUCUCUU (ssRNA) [Id_ii_S1_P5E.3_K5.2_C5.2_[T-1G]_H5.2_A5.1_F5.1_T5.2_[A12T]] | 26.6
UCUCUUCGUAUAUUAUUAGCUCUCUU (ssRNA) [Id_ii_S1_P5E.3_K5.2_C5.2_[T-1G]_H5.2_A5.1_F5.1_T5.2_[T11G]_[A12C]] | 25.6
UCUCUUCGUAUAUUAUUAUCUCUCUU (ssRNA) [Id_ii_S1_P5E.3_K5.2_C5.2_[T-1G]_H5.2_A5.1_F5.1_T5.2_[A12C]] | 18.4
UCUCUUUCUAUAUUAUUAUUUCUCUU (ssRNA) [Id_ii_S1_P5E.3_K5.2_C5.2_[C-2T]_[T-1C]_H5.2_A5.1_F5.1_T5.2_[A12T]] | 402
UCUCUUACUAUAUUAUUAUCUCUCUU (ssRNA) [Id_ii_S1_P5E.3_K5.2_C5.2_[C-2A]_[T-1C]_H5.2_A5.1_F5.1_T5.2_[A12C]] | 536
UCUCUUUAUAUAUUAUUACCUCUCUU (ssRNA) [Id_ii_S1_P5E.3_K5.2_C5.2_[C-2T]_[T-1A]_H5.2_A5.1_F5.1_T5.2_[T11C]_[A12C]] | 14.1
UCUCUUCCUAUAUUAUUAAAUCUCUU (ssRNA) [Id_ii_S1_P5E.3_K5.2_C5.2_[T-1C]_H5.2_A5.1_F5.1_T5.2_[T11A]] | 683
UCUCUUCCUAUAUUAUUAAUUCUCUU (ssRNA) [Id_ii_S1_P5E.3_K5.2_C5.2_[T-1C]_H5.2_A5.1_F5.1_T5.2_[T11A]_[A12T]] | 779
UCUCUUACUAUAUUAUUAACUCUCUU (ssRNA) [Id_ii_S1_P5E.3_K5.2_C5.2_[C-2A]_[T-1C]_H5.2_A5.1_F5.1_T5.2_[T11A]_[A12C]] | 706

Binder | Kd [nM]
UCUCUUCGUAUAUUAUUAGUUCUCUU (ssRNA) [Id_ii_S1_P5E.3_K5.2_C5.2_[T-1G]_H5.2_A5.1_F5.1_T5.2_[T11G]_[A12T]] | 25.4
UCUCUUUGUAUCAUAUCUCUU (ssRNA) [Ic_S1_P4E.1_K4.1_C4.1_H4.1_A4.1_[A6C]_[T7A]_F4.1_T4.1] | 1.04
UCUCUUUGUAUUAUAUCUCUU (ssRNA) [Ib_S1_P4E.1_K4.1_C4.1_H4.1_A4.1_[A6T]_[T7A]_F4.1_T4.1] | 2.13
UCUCUUAUUAUAUUAUUACAUCUCUU (ssRNA) [Id_ii_S1_P5E.3_K5.2_C5.2_[C-2A]_H5.2_A5.1_F5.1_T5.2_[T11C]] | 128
UCUCUUUUUAUAUUAUUAAUUCUCUU (ssRNA) [Id_ii_S1_P5E.3_K5.2_C5.2_[C-2T]_H5.2_A5.1_F5.1_T5.2_[T11A]_[A12T]] | 457
UCUCUUCCUAUAUUAUUACUUCUCUU (ssRNA) [Id_ii_S1_P5E.3_K5.2_C5.2_[T-1C]_H5.2_A5.1_F5.1_T5.2_[T11C]_[A12T]] | 456
UCUCUUUAUAUAUUAUUAGUUCUCUU (ssRNA) [Id_ii_S1_P5E.3_K5.2_C5.2_[C-2T]_[T-1A]_H5.2_A5.1_F5.1_T5.2_[T11G]_[A12T]] | 22.2
UCUCUUUAUAUAUUAUUAUUUCUCUU (ssRNA) [Id_ii_S1_P5E.3_K5.2_C5.2_[C-2T]_[T-1A]_H5.2_A5.1_F5.1_T5.2_[A12T]] | 17.6
UCUCUUAUUAUAUUAUUAGCUCUCUU (ssRNA) [Id_ii_S1_P5E.3_K5.2_C5.2_[C-2A]_H5.2_A5.1_F5.1_T5.2_[T11G]_[A12C]] | 208
UCUCUUUGUAUUAGUGUCUCUU (ssRNA) [Ib_S1_P5E.1_K5.1_C5.1_H5.1_A5.1_F5.1_[T8G]_[A10G]_T5.1] | 386
UCUCUUACUAUAUUAUUACAUCUCUU (ssRNA) [Id_ii_S1_P5E.3_K5.2_C5.2_[C-2A]_[T-1C]_H5.2_A5.1_F5.1_T5.2_[T11C]] | 424
UCUCUUUUUAUAUUAUUAUCUCUCUU (ssRNA) [Id_ii_S1_P5E.3_K5.2_C5.2_[C-2T]_H5.2_A5.1_F5.1_T5.2_[A12C]] | 550
UCUCUUAUUAUAUUAUUACGUCUCUU (ssRNA) [Id_ii_S1_P5E.3_K5.2_C5.2_[C-2A]_H5.2_A5.1_F5.1_T5.2_[T11C]_[A12G]] | 126
UCUCUUUAUAUAUUAUUAUCUCUCUU (ssRNA) [Id_ii_S1_P5E.3_K5.2_C5.2_[C-2T]_[T-1A]_H5.2_A5.1_F5.1_T5.2_[A12C]] | 21
UCUCUUCGUAUAUUAUUAAUUCUCUU (ssRNA) [Id_ii_S1_P5E.3_K5.2_C5.2_[T-1G]_H5.2_A5.1_F5.1_T5.2_[T11A]_[A12T]] | 26.5
UCUCUUCCUAUAUUAUUAUCUCUCUU (ssRNA) [Id_ii_S1_P5E.3_K5.2_C5.2_[T-1C]_H5.2_A5.1_F5.1_T5.2_[A12C]] | 532
UCUCUUUUUAUAUUAUUAUUUCUCUU (ssRNA) [Id_ii_S1_P5E.3_K5.2_C5.2_[C-2T]_H5.2_A5.1_F5.1_T5.2_[A12T]] | 181
UCUCUUUUUAUAUUAUUACUUCUCUU (ssRNA) [Id_ii_S1_P5E.3_K5.2_C5.2_[C-2T]_H5.2_A5.1_F5.1_T5.2_[T11C]_[A12T]] | 414
UCUCUUCCUAUAUUAUUACGUCUCUU (ssRNA) [Id_ii_S1_P5E.3_K5.2_C5.2_[T-1C]_H5.2_A5.1_F5.1_T5.2_[T11C]_[A12G]] | 746
UCUCUUCGUAUAUUAUUAAAUCUCUU (ssRNA) [Id_ii_S1_P5E.3_K5.2_C5.2_[T-1G]_H5.2_A5.1_F5.1_T5.2_[T11A]] | 38.8
